“And” between values parts separate entries of the source, which are not always exact repeats. Identical values can stand only once. Like-named read-outs stand apart in the source and are kept apart here. Where no end group is shown, it is not given here.

33 molecules from patent US20260242478A1 (published 2026) can be followed below.

In experiment [1] the target is T1, Anti-CD28 Fab (SEQ ID NOs: 696, 697).
T1 construct: In the phage ELISA the Fab was biotinylated and captured on neutravidin coated plates
The experiment in a line: phage binding ELISA on captured anti-CD28 Fab; wells pre-incubated with CD28 antigen as competitor. (In general: ELISA stands for enzyme-linked immunosorbent assay.)

Experiment [2] has the same target. Description: phage binding ELISA; biotinylated anti-CD28 Fab captured on neutravidin plate, clonal phage supernatant, anti-M13 HRP detection.
The target of experiment [3] is Ab-15. The experiment in a line: binding ELISA: biotinylated peptide on neutravidin plate, Ab-15 titrated.
Experiment [4] deals with Ab-15. Description: BLI (Octet): sensor loaded with 200 nM biotinylated peptide, 100 nM Ab-15. A general note: BLI is a label-free optical method that tracks binding on a fibre tip over time.
The target in experiment [5] is Ab-15. The experiment in a line: competition ELISA: peptide titrated against 1 nM Ab-15; competitor plate-bound CD28.
Experiment [6] has as its target T2, PSMA Fab (SEQ ID NOs: 19, 20).
T2 construct: also called 006 PSMA Fab; anti-PSMA Fab
The experiment in a line: competition ELISA, peptide titrated against 0.3 nM PSMA Fab on captured biotinylated PSMA.

For experiment [7], the target named is anti-CD28 Fab. Description: competition ELISA: peptide titrated (0-100 µM) with 1 nM anti-CD28 Fab, binding to plate-bound CD28.
Experiment [8] addresses T3, anti-CD28 scFv (disulfide).
T3 construct: also called Anti-CD28 scFv (VH - linker 1 - VL) Disulfide mutation: G44C, G235C
The experiment in a line: competition ELISA: peptide titrated (0-100 µM) with 0.3 nM anti-CD28 scFv (disulfide), binding to plate-bound CD28.

The target of experiment [9] is T4, anti-CD28 scFv.
T4 construct: also called Anti-CD28 scFv (VH - linker 1 - VL)
Description: BLI (Octet RED96): biotinylated peptide on streptavidin sensor, anti-CD28 scFv at 100-12.5 nM, 1:1 model.

For experiment [10], the target named is anti-CD28 Fab. The experiment in a line: competition ELISA, peptide titrated 0-100 uM against 1 nM anti-CD28 Fab, plate-bound CD28 as competitor.
In experiment [11] the target is T5, anti-CD28 scFv (disulfide).
T5 construct: also called Anti-CD28 scFv (VH - linker 1 - VL) Disulfide mutation: G44C, G235C
The experiment in a line: competition ELISA, peptide titrated 0-100 uM against 0.3 nM anti-CD28 scFv (disulfide), plate-bound CD28 as competitor.

Experiment [12] deals with T2, PSMA Fab (SEQ ID NOs: 19, 20). The experiment in a line: competition ELISA, peptide titrated against 0.3 nM PSMA Fab on captured biotinylated PSMA. The source holds these as a separate data set.
Experiment [13] deals with anti-CD28 Fab. The experiment in a line: competition ELISA, peptide titrated 0-100 uM against 1 nM anti-CD28 Fab, plate-bound CD28 as competitor. The source holds these as a separate data set.
Experiment [14] concerns the target anti-CD28 Fab. Described as above. The source holds these as a separate data set.
Experiment [15] has as its target anti-CD28 Fab. Description: competition ELISA: peptide titrated (0-100 µM) with 1 nM anti-CD28 Fab, binding to plate-bound CD28. This is another data set of the same source.
The target of experiment [16] is anti-CD28 Fab. Description: BLI (Octet): biotinylated peptide on streptavidin sensor, anti-CD28 Fab titrated in solution, 1:1 model.

B1: Phage-1327 (Peptide-87 library sequence, SEQ ID NO: 1643) (peptide)
peptide: YCDGHLPEYMEKCL
Consider B1, for which the “Phage binding ELISA, Anti-CD28 Fab signal in the presence of CD28” value (shortened to “Phage binding ELISA … of CD28”) in experiment [1] turned out to be 0.07. In addition, in experiment [2], the “Phage binding ELISA, Anti-CD28 Fab signal” value is 0.43.

B2: Peptide-74 (peptide)
peptide: IYWCPIDRWNDCYN
modifications: cysteine pairing not given here; also: biotinylated, site not given here
notes: CD28 peptide mask
For orientation: EC50 means the concentration needed to bring the measured effect to its halfway point. The term IC50 denotes the concentration needed to halve the response being measured. Read a low IC50 as higher potency. B2 displayed an EC50 in [3] of 0.0076 µM. Moreover, the “Octet signal (200 nM peptide)” value in experiment [4] is 0.705. In experiment [5], this molecule registered an IC50 of 0.41 µM.

B3: Phage-1333 (Peptide-87 library sequence, SEQ ID NO: 1649) (peptide)
peptide: YCDGHTWMYKQKCL
Regarding B3, the “Phage binding ELISA … of CD28” value in experiment [1] was 0.08. Besides, the “Phage binding ELISA, Anti-CD28 Fab signal” value in [2] came to 0.4.

B4: Peptide-188 (peptide)
peptide: IECAYMTDQRFWCW
modifications: cysteine pairing not given here; also: biotinylated (site not given here)
notes: PSMA peptide mask (P2)
On to B4, for which the IC50 in experiment [6] came to 7.22 µM. That is a single-digit micromolar value.

B5: Peptide-92 (peptide)
peptide: SCAAGASYAWPYCL
In turn, B5 yielded an IC50 in experiment [7] of 7.89 µM.

B6: Peptide-101 (peptide)
peptide: SCAAGAAYAWPYCL
Turning to B6, the IC50 is 7.42 µM in experiment [7] and 36.2 µM in experiment [8].

B7: Peptide-106 (peptide)
peptide: SCAAGASYAWPYCA
On to B7, for which the IC50 in [7] amounted to 76.4 µM. This lies in the double-digit micromolar range.

B8: Peptide-99 (peptide)
peptide: ACAAGASYAWPYCL
On to B8, for which the IC50 in experiment [7] was determined as 21 µM; in [8] it was 67 µM.

B9: Peptide-105 (peptide)
peptide: SCAAGASYAWPACL
Turning to B9, the figures for the IC50 in experiment [7] and in experiment [8] were 13 µM and 56.9 µM, respectively.

B10: Phage-1332 (Peptide-87 library sequence, SEQ ID NO: 1648) (peptide)
peptide: YCAGHLDEYMEKCL
Turning to B10, the “Phage binding ELISA … of CD28” value in experiment [1] stood at 0.07. Moreover, the “Phage binding ELISA, Anti-CD28 Fab signal” value in experiment [2] came out at 0.4.

B11: Peptide-70 (peptide)
peptide: LDWCPRHLWALCFN
modifications: cysteine pairing not given here; also: biotinylated, site not given here
notes: CD28 peptide mask
Regarding B11, in [3], the EC50 stood at 0.0082 µM. For the same molecule, the “Octet signal (200 nM peptide)” value in experiment [4] was 0.697. The molecule further gave an IC50 in experiment [5] of 0.47 µM.

B12: Peptide-12 (peptide)
peptide: GYCHYWGDMVMWCG
modifications: cysteine pairing not given here; also: biotinylated, site not given here
In general, Kd refers to the constant that tells how readily two partners part at equilibrium. By koff is commonly meant the rate constant with which the complex falls apart. High values mean fast dissociation, low ones slow dissociation. Usually kon stands for the rate constant with which the complex forms. Turning to B12, in [9], the Kd was 0.017 µM, the koff was found to be 0.00167 s⁻¹ and the kon came to 98700 M⁻¹ s⁻¹.

B13: Peptide-84 (peptide)
peptide: YCAGHSPINIGKCL
Consider B13, for which the IC50 in experiment [10] was 26.8 µM; in experiment [11], more than 100 µM.

B14: Peptide-180 (peptide)
peptide: IAVLCQPNWMCAGF
modifications: cysteine pairing not given here; also: biotinylated (site not given here)
notes: PSMA peptide mask (P2)
Consider B14, for which the values for the IC50 in experiment [6] and in experiment [12] were 4.54 µM and 4.5 µM, respectively.

B15: Peptide-9 (peptide)
peptide: MDWCPRERWVDCFF
modifications: cysteine pairing not given here; also: biotinylated, site not given here
In experiment [9], B15 displayed a Kd of 0.377 µM, a koff of 0.0123 s⁻¹ and a kon of 32500 M⁻¹ s⁻¹.

B16: Phage-1331 (Peptide-87 library sequence, SEQ ID NO: 1647) (peptide)
peptide: YCTGWQVAYMQNCF
B16: in [1], the “Phage binding ELISA … of CD28” value stood at 0.06. In addition, in experiment [2], the “Phage binding ELISA, Anti-CD28 Fab signal” value is 0.42.

B17: Peptide-79 (peptide)
peptide: ACDTYFAGMINECF
Take B17: the IC50 in experiment [10] and in experiment [11] was more than 100 µM each time.

B18: Phage-1330 (Peptide-87 library sequence, SEQ ID NO: 1646) (peptide)
peptide: YCDGHWPGYLWKCL
In the case of B18, the “Phage binding ELISA … of CD28” value in experiment [1] came out at 0.06. The “Phage binding ELISA, Anti-CD28 Fab signal” value in experiment [2] amounted to 0.42.

B19: Peptide-41 (peptide)
peptide: MDWCPRDLWVHCFA
In the case of B19, the IC50 is more than 100 µM in experiment [10] and 61.5 µM in [11].

B20: Peptide-185 (peptide)
peptide: YECHQGLFHRWCVN
modifications: cysteine pairing not given here; also: biotinylated (site not given here)
notes: PSMA peptide mask (P2)
B20 showed a half-maximal inhibitory concentration (IC50) in experiment [6] of 23 µM.

B21: Peptide-87 (peptide)
peptide: YCAGHAWQYINKCL
Turning to B21, the IC50 in experiment [10] was 13.8 µM; in [13], 9.76 µM; in [14] it was 12.6 µM; in [11] it was more than 100 µM.

B22: Peptide-73 (peptide)
peptide: VPWCQIISGLECLT
modifications: cysteine pairing not given here; also: biotinylated, site not given here
notes: CD28 peptide mask
In the case of B22, the EC50 in [3] was 0.0549 µM. Further, in experiment [4], the “Octet signal (200 nM peptide)” value was determined as 0.166. Moreover, in [5], the IC50 is more than 100 µM.

B23: Peptide-179 (peptide)
peptide: LMKWCTPRWMCAAE
modifications: cysteine pairing not given here; also: biotinylated (site not given here)
notes: PSMA peptide mask (P2)
Turning to B23, the IC50 came out at 4.44 µM in experiment [6] and 4.6 µM in [12].

B24: Peptide-87 (peptide)
peptide: YCAGHAWQYINKCL
modifications: not fully specified; cysteine pairing not given here; also: biotinylated, site not given here
In [15], B24 displayed an IC50 of 12.6 µM. In experiment [16], the Kd came to 2.02 µM, the koff stood at 0.0202 s⁻¹, the kon is 10000 M⁻¹ s⁻¹ and the “t1/2” value is 36 s. Moreover, in [8], the IC50 was 11 µM and 14.6 µM.

B25: Peptide-110 (peptide)
peptide: YCAGHAAQYINKCL
notes: Alanine scan variant of Peptide-87 (W7A)
Take B25: the IC50 worked out at 3.16 µM in [15] and 1.91 µM in [8].

B26: Peptide-111 (peptide)
peptide: YCAGHAWAYINKCL
notes: Alanine scan variant of Peptide-87 (Q8A)
Turning to B26, the 50% inhibitory concentration (IC50) turned out to be 12.3 µM in experiment [15] and 10.5 µM in experiment [8].

B27: Peptide-116 (peptide)
peptide: YCAGHAWQYINKCA
notes: Alanine scan variant of Peptide-87 (L14A)
Take B27: the IC50 in experiment [15] was 98.6 µM; in experiment [8], 76.4 µM.

B28: Peptide-113 (peptide)
peptide: YCAGHAWQYANKCL
notes: Alanine scan variant of Peptide-87 (I10A)
B28 had an IC50 in experiment [15] of 102 µM.

B29: Peptide-114 (peptide)
peptide: YCAGHAWQYIAKCL
notes: Alanine scan variant of Peptide-87 (N11A)
Take B29: the IC50 stood at 5.49 µM in experiment [15] and 7.09 µM in experiment [8].

B30: Phage-1328 (Peptide-87 library sequence, SEQ ID NO: 1644) (peptide)
peptide: YCAGHASEYLQKCL
For the molecule B30, the “Phage binding ELISA … of CD28” value in experiment [1] is 0.06. Moreover, in [2], the “Phage binding ELISA, Anti-CD28 Fab signal” value is 0.43.

B31: Peptide-85 (peptide)
peptide: WCWDYKLWVPMTCP
For B31, the IC50 in [10] and in experiment [11] was more than 100 µM in each case.

B32: Peptide-72 (peptide)
peptide: IDWCPLHLWHECYH
modifications: cysteine pairing not given here; also: biotinylated, site not given here
notes: CD28 peptide mask
In the case of B32, the EC50 in [3] stood at 0.0133 µM. Also, the “Octet signal (200 nM peptide)” value in experiment [4] is 0.838. In [5], this molecule yielded an IC50 of 1.52 µM.

B33: Phage-1329 (Peptide-87 library sequence, SEQ ID NO: 1645) (peptide)
peptide: YCDGHSQIYMSKCL
B33: the “Phage binding ELISA … of CD28” value in [1] came to 0.06. In [2], the “Phage binding ELISA, Anti-CD28 Fab signal” value worked out at 0.42.
